Reference: IntAct's records for PubMed 11583623

B1: Serine protease HTRA2, mitochondrial (Homo sapiens), O43464 (parent)
chain: MAAPRAGRGAGWSLRAWRALGGIRWGRRPRLTPDLRALLTSGTSDPRARVTYGTPSLWARLSVGVTEPRACLTSGTPGPRAQLTAVTPDTRTREASENSGTRSRAWLAVALGAGGAVLLLLWGGGRGPPAVLAAVPSPPPASPRSQYNFIADVVEKTAPAVVYIEILDRHPFLGREVPISNGSGFVVAADGLIVTNAHVVADRRRVRVRLLSGDTYEAVVTAVDPVADIATLRIQTKEPLPTLPLGRSADVRQGEFVVAMGSPFALQNTITSGIVSSAQRPARDLGLPQTNVEYIQTDAAIDFGNSGGPLVNLDGEVIGVNTMKVTAGISFAIPSDRLREFLHRGEKKNSSSGISGSQRRYIGVMMLTLSPSILAELQLREPSFPDVQHGVLIHKVILGSPAHRAGLRPGDVILAIGEQMVQNAEDVYEAVRTQSQLAVQIRRGRETLTLYVTPEVTE

Variants of: B1
Conditions: with xiap_human XIAP

| Variant | effect of a mutation on the interaction |
| --- | --- |
| A134M | disrupting interaction |
